Consider two proteins from paper PMC6951436 (Cell reports, 2019).

Values joined by “and” are separate entries in the source; they are usually repeats but may differ in a detail not shown here. Equal values may be shown once.

The data set deals with the molecule itself. Kind of data set: native gel or EMSA + SEC. In general terms: A gel shift assay detects complexes by their altered migration in electrophoresis.

B1: pyruvate kinase liver isoform phosphorylated at S12 (PKL pS12) (enzyme)
chain: not shown
modifications: phosphoserine at 12 (71.2% phosphorylated)
By stoichiometry N is commonly meant a count of units in the complex or per binding partner. As for B1, the “stoichiometry N” value was 4 and 2.

B2: pyruvate kinase liver isoform phosphorylated at S113 (PKL pS113) (enzyme)
chain: not shown
modifications: phosphoserine at 113 (82.8% phosphorylated)
Consider B2, for which the “stoichiometry N” value was 4 and 2.
